Assay results: patent US20220162327A1, “ANTI-CCR5 AGENTS AND METHODS OF TREATMENT THAT BLOCK CANCER METASTASIS OR ENHANCE CELL DEATH INDUCED BY DNA DAMAGING CHEMOTHERAPY” (CytoDyn Inc., priority 2019, published 2022)
“Also recorded” adds a separate entry of the source. Read-outs that look alike come from different tables or passages of the source.

Experiments:
[1] = test system: MDA-MB-231 cells stable transfected with Luc2-GFP; assay: Mouse lung metastasis model, bioluminescence imaging; assay type: in vivo; details: mice, tail-vein injection, treated one day before injection
Protocol: FIG. 4A and FIG. 4B. Leronlimab block breast cancer metastasis in mice. […] MDA-MB-231 cells stable transfected with Luc2-GFP was injected into the mice through tail-vein. The mice in each group were treated one day before injection. The metastasis tumor formed in the lung was determined by bioluminescence imaging. […] The quantitative analysis of tumor size in each group was shown in (FIG. 4B). The size of tumors defined by photon flux (x10^8 p/sec/cm^2/sr).

[2] = test system: CCR5+ metastatic Triple Negative Breast Cancer; assay: Phase Ib/II study, tumor imaging; assay type: in vivo, human
Text: The primary objective of Phase 1b is to determine the safety, tolerability and maximum tolerate dose (MTD) of PRO 140 in patients with TNBC, when combined with carboplatin to define a recommended Phase II dose of the combination. The primary objective of phase 2b is to evaluate the impact on progression-free survival (PFS) of the combination PRO 140 and carboplatin in patients with CCR5+ TNBC previously treated with anthracyclines and taxanes in neoadjuvant and adjuvant setting.
The baseline target lesion was identified in the right upper lung at the size of 25 mm. The lesion was described as pleural based, major fissure, soft tissue density nodule in the right hilum.
Each treatment cycle consisted of 21 days. […] This treatment regimen was used for all subjects enrolled in the mTNBC study, unless otherwise indicated.
Scans were taken at the end of every two cycles (every 6 weeks). The subject had Scan 1 after six weeks, a Scan 2 after 12 weeks, and Scan 3 after 18 weeks (Table 4).

HIV-1 = details: at concentrations that do not affect CCR5 chemokine receptor activity in vitro; cited from earlier work
[3] = human, in vivo; cited from earlier work
CCR5 = CCR5 (Homo sapiens, UniProt P51681); assay: CCL5 induced calcium responses in MDA-MB-231-CCR5 cells (Fluo-4, living cell image); assay type: cell-based; design: expressed in transfected cells; host or cells: MDA-MB-231 human breast cancer cell line (MDA-MB-231-CCR5)
Chain of CCR5 (P51681 whole entry): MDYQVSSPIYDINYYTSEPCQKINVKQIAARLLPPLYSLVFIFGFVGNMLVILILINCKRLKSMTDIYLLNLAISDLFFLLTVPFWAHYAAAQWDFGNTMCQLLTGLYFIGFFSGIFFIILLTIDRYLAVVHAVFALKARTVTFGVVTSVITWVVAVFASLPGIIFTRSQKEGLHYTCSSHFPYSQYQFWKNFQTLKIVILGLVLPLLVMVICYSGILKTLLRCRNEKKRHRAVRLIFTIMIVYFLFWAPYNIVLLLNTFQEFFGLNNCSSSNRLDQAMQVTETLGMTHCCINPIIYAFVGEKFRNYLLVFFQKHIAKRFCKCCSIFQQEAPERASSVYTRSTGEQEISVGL
Text: FIG. 2A, FIG. 2B, FIG. 2C, and FIG. 2D. […] CCR5 activation induces calcium flux (Mueller et al., 2002; Petkovic et al., 2004). […] Fluo-4 was used as calcium concentration indicator. The CCR5 antagonist, vicriviroc, was used as positive control (FIGS. 2A and 2D).

[4] = Subject 706-001, scan 3, with carboplatin
[5] = Subject 706-001, with carboplatin

B1: leronlimab: humanized monoclonal antibody to CCR5; humanized version of the murine mAb PA14 (antibody, chains of the INN, looked up, V domains shown)
VH: EVQLVESGGGLVKPGGSLRLSCAASGYTFSNYWIGWVRQAPGKGLEWIGDIYPGGNYIRNNEKFKDKTTLSADTSKNTAYLQMNSLKTEDTAVYYCGSSFGSNYVFAWFTYWGQGTLVTVSS
VL: DIVMTQSPLSLPVTPGEPASISCRSSQRLLSSYGHTYLHWYLQKPGQSPQLLIYEVSNRFSGVPDRFSGSGSGTDFTLKISRVEAEDVGVYYCSQSTHVPLTFGQGTKVEIK
In the case of B1, the “breast cancer tumor metastasis to the lung” value [1] is reported as “blocks human breast cancer xenograft metastasis in mice; also recorded: dramatically decreased breast cancer tumor metastasis to the lung”, the “decrease in size of target lesion” value [2, 4] is reported as 20% and the new lung nodules [2, 4] is reported as “no new lung nodules found”. The “decrease in size of target lesion (as measured by tumor volume)” value [2, 5] was “greater than 20%”, the “new lymphadenopathy or metastatic disease on diagnostic CT chest, abdomen and pelvis” value [2, 5] was “No new lymphadenopathy or metastatic disease reported” and the “right hilar lymph node” value [2, 5] was “resolved”. For the same molecule, the “maximum standardized uptake values (SUVs) of right lung metastasis” value ([2]; Subject 706-001, with carboplatin, previously 15.3) was 6.8, the “inhibition of HIV-1 entry and replication” value (HIV-1) was “potently inhibits HIV-1 entry and replication” and the adverse events [3] was “without significant adverse events reported”. For the same molecule, the “effect on CCL5 induced calcium responses” value (CCR5) was “can block CCL5 induced calcium responses”, the “calcium response at calcium peak induce by CCL5” value (CCR5; Fluo-4, control cells 1.23±0.10, P<0.001) was 0.54±0.13 and the “effect on CCL5 induced calcium responses” value (CCR5; listed as Leronlimab) was “abrogated CCL5 induced Ca^+2 flux”.
